Assay [1] addresses synaptic membrane proteins in SMPL Nanodiscs (immobilised on magnetic beads). Nature of the assay: ELISA; magnetic bead-based: SMPL Nanodiscs immobilised through the His tag of MSP on Dynabeads; PBS with 0.1% BSA and 25 mM imidazole; AβOs 1 h at 37°C; bound AβOs detected by NU2 antibody or through biotin (Vectastain) with colorimetric HRP substrate; nonspecific binding measured with excess ATA; Kd as Aβ monomer equivalent. On the technique in general: ELISA stands for enzyme-linked immunosorbent assay.

In assay [2] the target is binding sites on cultured rat hippocampal neurons. Nature of the assay: immunostaining of cells or tissue; cultured rat hippocampal neurons; biotinylated STI 30 min at 37°C, then 100 nM AβOs 30 min at 37°C; AβOs detected with NU2, STI with a streptavidin conjugate; in the PIPLC experiment 100 nM fluorescent AβOs were seen directly after 1 h of 0.2 units/mL PIPLC.

Take “biotin-labeled high MW AβOs (larger than 50 kDa) (from UniProt P05067 672-713; P05067 672-713) (peptide)”: the increase in assay response relative to unfractionated AβOs in assay [1] stood at 80%. “biotinylated soybean trypsin inhibitor type II (from UniProt P01070 25-205) (natural protein)” yielded a percent reduction of AβO binding in assay [2] of 87%.
